Data on three molecules can be found in US20210261944, “Compositions and methods for ordered and continuous complementary DNA (cDNA) synthesis across non-continuous templates” (The Regents of the University of California, published 2021).

Data set [1] deals with T1, BomoC(ed) R2 RT (deltaN274, D996A) (Bombyx mori).
T1 chain: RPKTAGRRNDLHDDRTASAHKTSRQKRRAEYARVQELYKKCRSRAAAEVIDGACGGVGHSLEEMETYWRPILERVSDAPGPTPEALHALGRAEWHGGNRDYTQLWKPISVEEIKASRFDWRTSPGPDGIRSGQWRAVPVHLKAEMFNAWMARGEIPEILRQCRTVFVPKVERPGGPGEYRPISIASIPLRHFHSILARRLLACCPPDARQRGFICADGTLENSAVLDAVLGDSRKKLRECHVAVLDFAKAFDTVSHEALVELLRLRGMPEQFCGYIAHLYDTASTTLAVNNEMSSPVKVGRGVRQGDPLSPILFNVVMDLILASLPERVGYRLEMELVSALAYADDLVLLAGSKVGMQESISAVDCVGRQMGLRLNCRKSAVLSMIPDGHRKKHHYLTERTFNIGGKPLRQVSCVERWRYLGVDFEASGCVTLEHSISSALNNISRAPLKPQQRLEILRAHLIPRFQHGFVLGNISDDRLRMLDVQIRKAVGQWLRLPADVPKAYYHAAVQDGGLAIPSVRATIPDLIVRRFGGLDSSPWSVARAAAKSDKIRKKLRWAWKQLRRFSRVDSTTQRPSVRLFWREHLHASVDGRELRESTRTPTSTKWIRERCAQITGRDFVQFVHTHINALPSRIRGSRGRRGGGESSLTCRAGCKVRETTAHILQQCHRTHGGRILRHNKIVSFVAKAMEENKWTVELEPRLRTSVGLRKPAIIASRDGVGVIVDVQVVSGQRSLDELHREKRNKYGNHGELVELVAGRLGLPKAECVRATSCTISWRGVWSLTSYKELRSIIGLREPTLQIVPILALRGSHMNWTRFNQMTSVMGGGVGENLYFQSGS
Description: primer extended across ddA-tailed miRNA pool; full-length cDNA library; Mg2+, 37C; enzyme named as modified R2 RT. The following applies: tags: N-terminal MBP, C-terminal 6xHis; partial duplex, +1T 3' overhang. From the text:
(§1) FIG. 15B. Analysis of reaction products by denaturing PAGE and SYBR Gold staining using a template RNA pool of 963 equimolar miRNA sequences (miRXplore). The full-length cDNA library (labeled cDNA+adaptor template) and some cDNA product from copying of the miRNA template only (labeled cDNA) are the predominant products. Excess adaptor primer and adaptor template are also stained. “No enz” is the no enzyme control. Lane+/− indicates addition of RNase A after product denaturation, which removes the non-extended strand of the primer duplex and truncates the ˜70 nt 3′ adaptor template. The library was sequenced with results shown in comparison to a low-cycle-PCR library in FIG. 16B.
(§2) Typical assays for cDNA synthesis by processive use of multiple template molecules (i.e., serial template copying) used a DNA primer that was annealed in full or part to a second strand, usually RNA, to generate a primer 3′ end that was blunt duplex or a short 3′ overhang of defined sequence. Templates included chemically synthesized RNA or DNA oligonucleotides and/or RNAs purified after T7 RNA polymerase transcription; templates were also isolated from biological sources. Reaction conditions were typically 20 mM Tris-HCl pH 7.5, 150 mM KCl, 2 mM MgCl₂, 10% glycerol with incubations at room temperature or 37° C. […]

The target of data set [2] is T1, BomoC(ed) R2 RT (deltaN274, D996A). Description: used as second (terminal) template in ordered template relay; Mg2+, 37C. The following applies: tags: N-terminal MBP, C-terminal 6xHis; partial duplex, 3' C.
Description: as §1, §2

For data set [3] the target is unchanged. Description: primer for low-PCR cDNA library; Mg2+, 37C. The following applies: tags: N-terminal MBP, C-terminal 6xHis; partial duplex.

B1: no-PCR adaptor primer partial duplex c5p(FL)/c5pt (DNA:RNA)
DNA: CAAGCAGAAGACGGCATACGAGATGACGAGAGGTGACTGGAGTTCAGACGTGTGCTCTTCCGATCT
RNA: GAUCGGAAGAGCACACGUCUGAACUCCAGU
modifications: 3' C3 spacer on RNA strand
Regarding B1, the binding result in data set [1] was “binds”.

B2: no-PCR adaptor template partial duplex c3t(FL)/c3t_comp (mixed)
DNA: AATGATACGGCGACCACCGAGATCTACACCGCAGACGACACTCTTTCCCTACACGACGCTCTTCCGATCTC
RNA: GUGUAGAUCUCGGUGGUCGCCGUAUCAUU
modifications: 5' amino modifier C6, mixed DNA/ribonucleotides; complement 3' C3 spacer
B2: the binding result in data set [2] is on record as “binds”.

B3: low-PCR adaptor primer duplex c5p(uni)/c5pt (DNA:RNA)
DNA: GTGACTGGAGTTCAGACGTGTGCTCTTCCGATCC
RNA: GAUCGGAAGAGCACACGUCUGAACUCCAGU
modifications: 3' C3 spacer on RNA strand
Regarding B3, in data set [3], the binding result is reported as “binds”.
